Test results from US20240368267A1 (KODIAK SCIENCES, published 2024).
Positions count from the first letter of the chain named. Names may count otherwise.

B1: anti-IL-6 antibody, heavy chain I51Y, G66D / light chain WT (antibody, human IgG1, V domains shown)
VH: EVQLVESGGGLVQPGGSLRLSCAASGFTFSPFAMSWVRQAPGKGLEWVAKYSPGGSWTYYSDTVTDRFTFSLDTSKSTAYLQMNSLRAEDTAVYYCARQLWGYYALDIWGQGTLVTVSS
VL: DIQLTQSPSSLSASVGDRVTITCSASISVSYMYWYQQKPGKAPKLLIYDMSNLASGVPSRFSGSGSGTDFTLTISSLQPEDFATYYCMQWSGYPYTFGQGTKVEIK
notes: Derived as m2; Engineered human IgG1
B2: anti-IL-6 antibody, heavy chain S35A, G66D / light chain WT (antibody, human IgG1, V domains shown)
VH: B1 VH with S35A, Y51I
VL: B1 VL
notes: as for B1
B3: anti-IL-6 antibody, heavy chain S35G, G66D / light chain WT (antibody, human IgG1, V domains shown)
VH: B1 VH with S35G, Y51I
VL: B1 VL
notes: as for B1
B4: anti-IL-6 antibody, heavy chain S35P, G66D / light chain WT (antibody, human IgG1, V domains shown)
VH: B1 VH with S35P, Y51I
VL: B1 VL
notes: as for B1
B5: anti-IL-6 antibody, heavy chain S35W, G66D / light chain WT (antibody, human IgG1, V domains shown)
VH: B1 VH with S35W, Y51I
VL: B1 VL
notes: as for B1
B6: anti-IL-6 antibody, heavy chain T63P, G66D / light chain WT (antibody, human IgG1, V domains shown)
VH: B1 VH with Y51I, T63P
VL: B1 VL
notes: as for B1
B7: anti-IL-6 antibody, heavy chain S35F, G66D / light chain WT (antibody, human IgG1, V domains shown)
VH: B1 VH with S35F, Y51I
VL: B1 VL
notes: as for B1
B8: anti-IL-6 antibody, heavy chain S35Q, G66D / light chain WT (antibody, human IgG1, V domains shown)
VH: B1 VH with S35Q, Y51I
VL: B1 VL
notes: as for B1
B9: anti-IL-6 antibody, heavy chain S35V, G66D / light chain WT (antibody, human IgG1, V domains shown)
VH: B1 VH with S35V, Y51I
VL: B1 VL
notes: as for B1
B10: anti-IL-6 antibody, heavy chain T63I, G66D / light chain WT (antibody, human IgG1, V domains shown)
VH: B1 VH with Y51I, T63I
VL: B1 VL
notes: as for B1
B11: anti-IL-6 antibody, heavy chain T63Y, G66D / light chain WT (antibody, human IgG1, V domains shown)
VH: B1 VH with Y51I, T63Y
VL: B1 VL
notes: as for B1
B12: anti-IL-6 antibody, heavy chain T63H, G66D / light chain WT (antibody, human IgG1, V domains shown)
VH: B1 VH with Y51I, T63H
VL: B1 VL
notes: as for B1
B13: anti-IL-6 antibody, heavy chain T63F, G66D / light chain WT (antibody, human IgG1, V domains shown)
VH: B1 VH with Y51I, T63F
VL: B1 VL
notes: as for B1
B14: anti-IL-6 antibody, heavy chain T63V, G66D / light chain WT (antibody, human IgG1, V domains shown)
VH: B1 VH with Y51I, T63V
VL: B1 VL
notes: as for B1
B15: anti-IL-6 antibody, heavy chain T63D, G66D / light chain WT (antibody, human IgG1, V domains shown)
VH: B1 VH with Y51I, T63D
VL: B1 VL
notes: as for B1
B16: anti-IL-6 antibody, heavy chain T63G, G66D / light chain WT (antibody, human IgG1, V domains shown)
VH: B1 VH with Y51I, T63G
VL: B1 VL
notes: as for B1
B17: anti-IL-6 antibody, heavy chain S35T, G66D / light chain WT (antibody, human IgG1, V domains shown)
VH: B1 VH with S35T, Y51I
VL: B1 VL
notes: as for B1
B18: anti-IL-6 antibody, heavy chain T63S, G66D / light chain WT (antibody, human IgG1, V domains shown)
VH: B1 VH with Y51I, T63S
VL: B1 VL
notes: as for B1
B19: anti-IL-6 antibody, heavy chain S35Y, G66D / light chain WT (antibody, human IgG1, V domains shown)
VH: B1 VH with S35Y, Y51I
VL: B1 VL
notes: as for B1
B20: anti-IL-6 antibody, heavy chain S35E, G66D / light chain WT (antibody, human IgG1, V domains shown)
VH: B1 VH with S35E, Y51I
VL: B1 VL
notes: as for B1
B21: anti-IL-6 antibody, heavy chain T63A, G66D / light chain WT (antibody, human IgG1, V domains shown)
VH: B1 VH with Y51I, T63A
VL: B1 VL
notes: as for B1
B22: anti-IL-6 antibody, heavy chain S35L, G66D / light chain WT (antibody, human IgG1, V domains shown)
VH: B1 VH with S35L, Y51I
VL: B1 VL
notes: as for B1
B23: anti-IL-6 antibody, heavy chain S35K, G66D / light chain WT (antibody, human IgG1, V domains shown)
VH: B1 VH with S35K, Y51I
VL: B1 VL
notes: as for B1
B24: anti-IL-6 antibody, heavy chain T63L, G66D / light chain WT (antibody, human IgG1, V domains shown)
VH: B1 VH with Y51I, T63L
VL: B1 VL
notes: as for B1
B25: anti-IL-6 antibody, heavy chain T63W, G66D / light chain WT (antibody, human IgG1, V domains shown)
VH: B1 VH with Y51I, T63W
VL: B1 VL
notes: as for B1
B26: anti-IL-6 antibody, heavy chain S35I, G66D / light chain WT (antibody, human IgG1, V domains shown)
VH: B1 VH with S35I, Y51I
VL: B1 VL
notes: as for B1
B27: anti-IL-6 antibody, heavy chain T63R, G66D / light chain WT (antibody, human IgG1, V domains shown)
VH: B1 VH with Y51I, T63R
VL: B1 VL
notes: as for B1
B28: anti-IL-6 antibody, heavy chain S35D, G66D / light chain WT (antibody, human IgG1, V domains shown)
VH: B1 VH with S35D, Y51I
VL: B1 VL
notes: as for B1

molecular target: T1, human IL-6 (human, UniProt P05231 30-212); assay: SPR (Biacore T200), antibody from cell supernatant captured on Protein A, IL-6 flowed over, 37 C
T1 construct: also called interleukin-6
T1 sequence (P05231 30-212 limits assumed): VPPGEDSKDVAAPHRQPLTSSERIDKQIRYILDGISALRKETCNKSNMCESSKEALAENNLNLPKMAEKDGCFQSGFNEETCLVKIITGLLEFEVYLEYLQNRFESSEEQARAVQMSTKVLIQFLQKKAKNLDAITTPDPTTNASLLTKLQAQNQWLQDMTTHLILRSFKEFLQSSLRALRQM
Experimental: Those four positions were selected based on their tolerance for mutations as observed in bacterial and mammalian screens. […] These cultures were centrifuged and supernatants containing secreted antibodies were harvested and diluted in HBS-EP+ running buffer (1:20 ratio).
Antibodies were captured on a Protein A chip (GE) by injecting 1:20 cell supernatant dilutions at 10 μL/min for 60 seconds. […] The sensor chip was regenerated by a 60 seconds injection of 10 mM Glycine pH 1.7 at the flow rate of […]. […] For this setup, 1 μg/mL of purified antibody was injected over a Protein A chip at 10 μL/min for 25 seconds. […] The sensor chip was regenerated by a 60 seconds injection of 10 mM Glycine pH 1.7 at flow rate of 50 μL/min. Data analysis for supernatant and purified samples were performed using BIAevaluation software (GE). All sensorgrams were double reference subtracted and fit using a 1:1 Langmuir binding model.

Binder	Kd	koff	kon
B1	3.45 nM	0.0051 s⁻¹	1.48e+06 M⁻¹ s⁻¹
B2	0.3 nM	0.000494 s⁻¹	1.65e+06 M⁻¹ s⁻¹
B3	0.284 nM	0.00036 s⁻¹	1.27e+06 M⁻¹ s⁻¹
B4	11.9 nM	0.00123 s⁻¹	103000 M⁻¹ s⁻¹
B5	23.5 nM	0.00217 s⁻¹	92300 M⁻¹ s⁻¹
B6	0.21 nM	0.000436 s⁻¹	2.08e+06 M⁻¹ s⁻¹
B7	0.749 nM	0.00119 s⁻¹	1.59e+06 M⁻¹ s⁻¹
B8	0.302 nM	0.000395 s⁻¹	1.31e+06 M⁻¹ s⁻¹
B9	0.414 nM	0.000469 s⁻¹	1.13e+06 M⁻¹ s⁻¹
B10	0.211 nM	0.000373 s⁻¹	1.77e+06 M⁻¹ s⁻¹
B11	0.21 nM	0.000383 s⁻¹	1.82e+06 M⁻¹ s⁻¹
B12	0.213 nM	0.00042 s⁻¹	1.98e+06 M⁻¹ s⁻¹
B13	0.221 nM	0.000401 s⁻¹	1.81e+06 M⁻¹ s⁻¹
B14	0.217 nM	0.000399 s⁻¹	1.84e+06 M⁻¹ s⁻¹
B15	0.204 nM	0.000392 s⁻¹	1.92e+06 M⁻¹ s⁻¹
B16	0.213 nM	0.000397 s⁻¹	1.86e+06 M⁻¹ s⁻¹
B17	0.297 nM	0.000409 s⁻¹	1.38e+06 M⁻¹ s⁻¹
B18	0.184 nM	0.000464 s⁻¹	2.52e+06 M⁻¹ s⁻¹
B19	0.503 nM	0.000551 s⁻¹	1.1e+06 M⁻¹ s⁻¹
B20	0.582 nM	0.000509 s⁻¹	874000 M⁻¹ s⁻¹
B21	0.177 nM	0.000496 s⁻¹	2.8e+06 M⁻¹ s⁻¹
B22	0.315 nM	0.000351 s⁻¹	1.11e+06 M⁻¹ s⁻¹
B23	0.557 nM	0.000949 s⁻¹	1.7e+06 M⁻¹ s⁻¹
B24	0.21 nM	0.000363 s⁻¹	1.73e+06 M⁻¹ s⁻¹
B25	0.251 nM	0.000427 s⁻¹	1.7e+06 M⁻¹ s⁻¹
B26	0.334 nM	0.000376 s⁻¹	1.12e+06 M⁻¹ s⁻¹
B27	0.173 nM	0.00046 s⁻¹	2.66e+06 M⁻¹ s⁻¹
B28	0.321 nM	0.000641 s⁻¹	2e+06 M⁻¹ s⁻¹
